Laboratory results from a protein production outcome set (Wang et al. 2014).
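Note: failed if final PepcDB status was selected cloned or expressed and not failed if soluble or beyond.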

Assay: label from the status in PepcDB records
In the case of “MKFRTLLVVNKVVVFAKLLSVLQKVEKTAFLILCSEADEEIRLVTKADAFNGLYTSALLRKSEFFEDYRIESKYHNLIGLEFQLSAFEDAIRASSNAAGVIMKLSKKEQACISFHIQTLTSNIIQDVPVRVITPTQIEELAEPNLPPCSGVVLSPLQKIAILIEKFRHVSQSIQLTLQSTQAAELHIKCHSETLEVETCIKGLKIVTLNSEESSSEIEQSTSASVDGRHLSKAMFAAYLIPQRAFCCKLSILNHGNIHWIH”, the protein production was “failed”.
With “MKFSEECRSAAAEWWEGSFVHPFVQGIGDGTLPIDRFKYYVLQDSYYLTHFAKVQSFGAAYAKDLYTTGRMASHAQGTYEAEMALHREFAELLEISEEERKAFKPSPTAYSYTSHMYRSVLSGNFAEILAALLPCYWLYYEVGEKLLHCDPGHPIYQKWIGTYGGDWFRQQVEEQINRFDELAENSTEEVRAKMKENFVISSYYEYQFWGMAYRKEGWSDSAIKEVEECGASRHNG” the protein production was “not failed”.
For “MKFSVLMSLYIKENPQFLRECFESLVAQTRQADEIVLVFDGVVTPDLEFVVTEFETKLPLKLVKLPQNRGLGKALNEGLLHCDYDWVFRMDTDDICVPDRFEKQVAFIEQHPESIIFGGQIAEFGKNVNDIVAYRNVPTSAQEIIKFTQKRCPFNHMTVAYQKSAVINCGGYEDLQEDYYLWIKLVAQGLYMANLPDILVYARVGNGMVLEHHHHHH”, the protein production was “not failed”.
In the case of “MKFTQRLSLRVRLTLIFLILASVTWLLSSFVAWKQTTDNVDELFDTQLMLFAKRLSTLDLNEINAADRMAQTPNKLKHGHVDDDALTFAIFTHDGRMVLNDGDNGEDIPYSYQREGFADGQLVGEDDPWRFVWMTSPDGKYRIVVGQEWEYREDMALAIVAGQLIPWLVALPIMLIIMMVLLGRELAPLNKLALALRMRDPDSEKPLNATGVPSEVRPLVESLNQLFARTHAMMVRERRFTSDAAHELRSPLTALKVQTEVAQLSDDDPQARKKALLQLHSGIDRATRLVDQLLTLSRLDSLDNLQDVAEIPLEDLLQSSVMDIYHTAQQAKIDVRLTLNAHGIKRTGQPLLLSLLVRNLLDNGPGVTPEALARIGERFYRPPGQTATGSGLGLSIVQRIAKLHDMNVEFGNAEQGGFEAKVSW”, the protein production was “failed”.
With “MKFYNREKEVAELKRVQELAFTQNSRMIVVTGRRRIGKTSLIKEALKGTPTVYLFIGRKAESILVTDFVKIVRETLSIFVPEGIPTFTNLMQYLFEVGKTRAFNIVIDEFQEFYNIRPDVFSDMQNLWDEYKQETKINLVISGSVYSLMQKIFTDHNEPLFGRADNILCLRAFKIGVLKQIMEDLASGYSNDDLLALYTLTGGIPKYVELFCDNQALTIDKMYDFVFSENSLFIDEGRNLLITEFGKNYGTYFSILSEIANGHYTQGEIESALGGTAIGGYLSKLENVYNLITRERPIFAKPGTKKNVRYVIGDNFLNFWFKYIEQNRSYIELQNFDDLRQLAKADYPTYSGRVLEKYFKQKLAETGGFKEIGSWWETKSSIGKQRINSYEIDIVALKSSGKKALIAEVKRVPENNYSHTVFMEKVEHLKQKEMSKYDIETQVLGLKDMLEHHHHHH” the protein production was “failed”.
With “MKGDRHCIVIIDMLNDFIGPNAPLRCPDGEKIVPNLQKLVEFAHENGINVVFVQEAHRKNDADFRVRPVHAVKGTWGSDFIPELRPDEEKGDYIVQKRRHSAFAYTDLDLYLREEKIDTVVVTGVWTNVCVRSTASDALYHAYNVIAISDCCASANEEMHQAGLRDMALFAEVMTLEEYMKEWPNREGAKK” the protein production was “not failed”.
In the case of “MKGDRTLSCMIKTDRGEICIDPAEPILHIIGKKYAIFIVSVLGNDNTRKNFNDLMRAVPGISSTMLSARLHEMNECGLIERHEGDIVTYELTERGREIRKRMLPLIEYLADAD”, the protein production was “failed”.
In the case of “MKGENAMEHHTSVLSLMVVVAIAFFVPLLLQRFKLKALPVVVAEIIAGIFVGKSGFNIIEPDIWLQVLSTLGFIFLMFLSGLEIDFSIFKQKGKKNTTNEPNTFQAASIIFLFIFILSYALSLLFVWLGFVDNAMFMTLIISTISLGVVVPTLKENNLGKTAIGQIILLVAVIADLVTMILLAVFVGLNSESGQSMWLLLLLFGAGIVIYFVAKRFKNIPYLDSLKAGSVQIDTRAVFALILILVGLSESVGAENILGAFLAGVLVSLLSPNEDMVEKLDSIGYGFFIPIFFVMVGVNLEVWSIFKEPSSMLMIPILIVGLFISKLLPSLVLRKWYPRNIVLGSAILLTSTLSLVIAAAQIGEKLEIISPSLSVSLILSAVITCIFAPILFKKMFPKVETPKPKVAIIGASRITLPLSLDLKREDYDVTLYMMRQNKINDEEATSHDFPIVKLDDITIASLTEQTAFDADRVVVATSDDEQNLLLAEHAKELGVEHVIASVEDPLLQEKATQEHIAVFSTINSTRILLRALIDKPSLVRLITTANETVREVELRSNKYNGVALRRLPFLGDVLVIQIYRGNKALIPHGDTRLQHGDTLLVTGSKEHIDTLKNILE”, the protein production was “failed”.
For “MKGGLYMKLTKKQLKEYIEDYKKSDDILINLYIETYEFYCRLRDELKNSDLMIEHTNKAGASNIVKNPLSIELTKTVQTLNNLLKSMGLTAAQRKKIVQEEGGFGDY”, the protein production was “failed”.
In the case of “MKGGTIQISWHDGKPVLTVDFHPISGLLATAGADYDIKLWLINSGQAEKKVPSVSYQSSLTYHGCAVNTIRFSPSGELLASGADGGELFIWKLHPSETNQSWKVHKSLSFHRKDVLDLQWSPDDAYLISGSVDNSCIIWDVNKGSVHQILDAHCHYVQGVAWDPLAKYVASLSSDRTCRIYANKPQTKSKGVEKMNYVCQHVIMKADQQRGDETKTIKTHLFHDETLPSFFRRLSWSPDGSFLLIPAGSFKVSPTSEAVNATYVFSRKDLSRPALQLPGASKPVVVVRFCPVAFKLRGSSSEEGFFKLPYRLVFAIATLNSVYIYDTECVAPIAVLAGLHYAAITDITWSPNASYLALSSQDGYCTLVEFEDKELGEAVSISGLLLVLSLLNLPEPD”, the protein production was “failed”.
With “MKGLERESHFTLNENAMFFECAYSCDNALFLQLDDRSFFITDSRYTQEAKESVQPKNGVLAEVVESSDLVQSAIDLIVKSSVKKLFFDPNQVNLQTYKRLNSALGDKVALEGVPSYHRQKRIIKNEHEIQLLKKSQALNVEAFENFAEYVKKIFDEKESLSERYLQHKVKDFLTREGVYDLSFEPILALNANASKPHALPSAKDFLKAEHSILLDMGIKYERYCSDRTRTAFFDPKDFVFKREQSFKDKERQKIYDIVKEAQEKAISGIRAGMTGKEADSLARGVISDYGYGQYFTHSTGHGIGLDIHELPYISSRSETILEEGMVFSVEPGIYIPGFFGVRIEDLVVIKNSRSELL” the protein production was “failed”.
With “MKGLFKNKSRLPGEIVRQTRDLIALAESEEEETDARNSKRLGICAELCRNIRDLKSILYGNGEAEPVPEACLLLTQEFFRADTLRPLIKSIPKLDLEARKDATQIVANLQKQQVEFRLVASEYLESNLDVIDSLVEGIDHDHELALHYTGMLKECVRHQVVAKYILESKNLEKFFDYVQLPYFDVATDASKIFRELLTRHKSTVAEYLAKNYEWFFAEYNTKLLEKGSYFTKRQASKLLGDVLMDRSNSGVMVKYVSSLDNLRIMMNLLREPTKNIQLEAFHIFKLFVANENKPEDIVAILVANRTKILRLFADLKPEKEDVGFETDKALVMNEIATLSLLDIKTADR” the protein production was “failed”.
For “MKGLLPLAWFLACSVPAVQGGLLDLKSMIEKVTGKNALTNYGFYGCYCGWGGRGTPKDGTDWCCWAHDHCYGRLEEKGCNIRTQSYKYRFAWGVVTCEPGPFCHVNLCACDRKLVYCLKRNLRSYNPQYQYFPNILCS”, the protein production was “failed”.
For “MKGMKYHDYIWDLGGTLLDNYETSTAAFVETLALYGITQDHDSVYQALKVSTPFAIETFAPNLENFLEKYKENEARELEHPILFEGVSDLLEDISNQGGRHFLVSHRNDQVLEILEKTSIAAYFTEVVTSSSGFKRKPNPESMLYLREKYQISSGLVIGDRPIDIEAGQAAGLDTHLFTSIVNLRQVLDI”, the protein production was “not failed”.
For “MKHEWRKFEKELYGVKAKPIFLEVEEQRFITIKGKGNPNDQDFSNRVSALYALAYGIKMAYKQAMKTEQDDRAVTDFAVYPLEGLWQQAKDAKEDTLEKDKLSYTIMIRQPEFITKELVDQALDRVKIKKPNSFYESISFESIKDGKCIQVLHIGSYDDEPQSFAKMDAFAKEHGLKRSSDIHREIYLSNAQRTEKSKLKTILRYQVEEK”, the protein production was “failed”.
With “MKHMEKFANHFGYNRMFAKDQLTLGVHIPIENYQFHAPTMEKQVELVQKAEQYGFTGVWLRDVLLQDPDFGDPATGQIYDMMIYLTYLASKTEKIAFGTSATVLSLRHPLRVAKEIATLDQLFPERIMLGVSSGDRRADFKALGVSHETRGEKFREAFAYLEEILYKNFPSIQSTLGEVHGANLVPKPSKRVPTFITGFSQQNMEWFAEHGDGWMYYPRSPVHQAGAIGQWRELVEDYHPDVFKPFIQPMHLDLSEDPNERPTPIRLGYRTGRKALIELLDIYKSIGVNHLFLALFDGQRPADEVLDELGEEVLPHFPAL” the protein production was “not failed”.
For “MKHPLQDMFTSAIEAVARDSGWAELSAVGSYLAKNDPSFDPRNWGHGRLSQMVKKLDFLTVQESRNGSKLHSEIRLRHDGLEHHHHHH”, the protein production was “not failed”.
With “MKHYFSCLKGDTIKAIFLVCLAVGVVGMSYGSLAMAYGFPLWVPFVLSIFVLAGASEFMFIGIVASGGNPLAAAAAGLLVNARHVPFGVTVRDLVGTRAASFFGCHIMNDESVVFGLSQKTPEQRKAAYWLCGLGVALFWPIGTLIGAGVGKLLPAPETIGLDAVFPAILLALVIPAFKNRTTLIRGCSGAALSLAAVPFVAAGLPVLLSLLGLLARKK” the protein production was “failed”.
For “MKIALIGASGYVGSALLKEALSRGHHVTALVSRPERIAAQANLAAAKVDVQDSAQLAEQLKGFDAVLSAFSGHAQAEQFDYFVKGIRSIIAAAKAAQAPRLLVVGGAGSLEVAPGVQLVDTPEFPEQWKASALGAREALNLLRAETELNWTLLSPSAMLQPGQRTGQFRLGKDQLLVDAEGNSHISVEDYAVAMIDELEKGEHQRSRFTVGYLEHHHHHH”, the protein production was “not failed”.
In the case of “MKIATYNVRVDTEYDQDWQWSFRKEAVCQLINFHDWSLCCIQEVRPNQVRDLKAYTTFTCLSAEREGDGQGEGLAILYNEQKVQAIDTGYFWLSETPQQPSIHPEAGCPRIALWGLFKETTQNTPFLVINVHLDHISAHARLAGMTVILEELHDKIAQYPTLLMGDFNAESGEEVHQLVQKKFQDSKNLATHYGPRGTFQNFTYTKPWAELEEIDYIYVKGWQVQQTASLTDSIDGRFPSDHFPLEAEV”, the protein production was “not failed”.
In the case of “MKIAVLGATGRAGSAIVAEARRRGHEVLAVVRDPQKAADRLGATVATLVKEPLVLTEADLDSVDAVVDALSVPWGSGRGYLHLDFATHLVSLLRNSDTLAVFILGSASLAMPGADHPMILDFPESAASQPWYDGALYQYYEYQFLQMNANVNWIGISPSEAFPSGPATSYVAGKDTLLVGEDGQSHITTGNMALAILDQLEHPTAIRDRIVVRDADLEHHHHHH”, the protein production was “not failed”.
With “MKIDILDKGFVELVDVMGNDLSAVRAARVSFDMGLKDEERDRHLIEYLMKHGHETPFEHIVFTFHVKAPIFVARQWFRHRIASYNELSGRYSKLSYEFYIPSPERLEGYKTTIPPERVTEKISEIVDKAYRTYLELIESGVPREVARIVLPLNLYTRFFWTVNARSLMNFLNLRADSHAQWEIQQYALAIARIFKEKCPWTFEAFLKYAYKGDILKEVQV” the protein production was “not failed”.
With “MKIDLIISADDIKEEKVKNKTAVVIDMLRATSVITTALNNGCKRVVPVLTVEEALKKVKEYGKDAILGGERKGLKIEGFDFSNSPMEYTEDVVKGKTLIMTTTNGTRAIKGSETARDILIGSVLNGEAVAEKIVELNNDVVIVNAGTYGEFSIDDFICSGYIINCVMDRMKKLELTDAATTAQYVYKTNEDIKGFVKYAKHYKRIMELGLKKDFEYCCKKDIVKLVPQYTNGEIL” the protein production was “not failed”.
With “MKIGIMSDTHDHLPNIRKAIEIFNDENVETVIHCGDFVSLFVIKEFENLNANIIATYGNNDGERCKLKEWLKDINEENIIDDFISVEIDDLKFFITHGHHQSVLEMAIKSGLYDVVIYGHTHERVFEEVDDVLVINPGECCGYLTGIPTIGILDTEKKEYREIVLE” the protein production was “not failed”.
